# Results: US12186374B2 (Sanofi-Aventis Deutschland GmbH, priority 2014, dated 2025)
# Experiments:
# patients with T2DM [1] = test: Patient disposition / treatment discontinuation (Example 3); assay type: in vivo; conditions: Randomized population; percentages of patients randomized
# Source text: The discrepancy between the strata assigned by IVRS/IWRS and the information reported on electronic Case Report Form (eCRF) will be listed for all randomized patients, • Patients who have completed the 30-week treatment period, • Patients who discontinued the IMP during the 30-week treatment period, and the reasons for treatment discontinuation.
# [2] = test system: patients with Type 2 diabetes mellitus (T2DM); test: Body weight change from baseline to Week 30 (Example 2); assay type: in vivo, human
# Source text: Body weight should be obtained with the patient wearing undergarments or very light clothing and no shoes, and with an empty bladder. The same scale should be used throughout the study, and calibrated on a regular basis as recommended by the manufacturer.
# Similar MMRM method or ANCOVA was applied on continuous secondary efficacy endpoints and Cochran-Mantei-Haenszel method stratified by randomization strata was applied on categorical efficacy endpoints.
# [3] = test system: patients with Type 2 diabetes mellitus (T2DM); test: Increased calcitonin reported on AE form (Example 2); parameters: Patients with TEAE of increased calcitonin: dose or concentration left out as unconfirmed
# patients with T2DM [4] = test: Patients with HbA1c ≤6.5% or <7% at Week 30 (Example 3); assay type: in vivo, human
# Source text: (§1) Similar MMRM method or analysis of covariance (ANCOVA) was applied on continuous secondary efficacy endpoints and the Cochran-Mantei-Haenszel method stratified by randomization strata was applied for categorical efficacy endpoints.
# [5] = test system: patients with Type 2 diabetes mellitus (T2DM); test: Major cardiovascular events adjudicated by CAC (Example 2); conditions: on-treatment period
# patients with T2DM [6] = test: Patients requiring rescue therapy (Example 3); assay type: in vivo, human
# Source text: Routine fasting SMPG and central lab alerts on FPG (and HbA1c after Week 12) were set up to ensure that glycemic parameters remained under predefined threshold values. If values were above predefined thresholds, and no explanations were found, or appropriate actions failed, or a dose >60 U was necessary to decrease FPG and/or HbA1c below the threshold values, rescue therapy was to be introduced along with IMP and metformin (if taken). Newly initiated anti-diabetic medications, or an increase from baseline in background metformin dose were considered as a rescue therapy.
# [7] = test system: patients with Type 2 diabetes mellitus (T2DM); test: Average 7-point SMPG change from baseline to Week 30 (Example 2); assay type: in vivo, human; conditions: mITT population
# Source text: Self-monitored plasma glucose (SMPG)”, as used herein, is in particular the “7-point Self Monitored Plasma Glucose”. “7-point Self Monitored Plasma Glucose” in particular refers to the measurement of plasma glucose seven times a day and calculation of the average plasma glucose concentration therefrom. The “7-point Self Monitored Plasma Glucose” value is in particular an average plasma glucose concentration including fasting and postprandial conditions. In particular, measurements of plasma glucose concentration are performed pre-breakfast, post-breakfast (e.g. 2-hour post-breakfast), pre-lunch, post-lunch (e.g. 2-hour post-lunch), pre-dinner, post-dinner (e.g. 2-hour post-dinner) and at bed-time.
# The 7-point SMPG profile should be measured at the following 7 points: pre-prandial and 2 hours postprandial for breakfast, lunch, dinner and at bedtime. Two hours postprandial (breakfast, lunch and dinner) is defined as 2 hours after the start of the meal.
# The patients are requested to perform 7-point SMPG profile measurement over a single 24-hour period on 2 Different Days in the Week Before V6 (Week 0), V15 (Week 12), and V21 (week 30, end of treatment assessment visit). All SMPG values measured on these days will be recorded in diary and transferred into the e-CRF.
# [8] = test system: patients with Type 2 diabetes mellitus (T2DM); test: Pen-related event questionnaire (Example 2); conditions: on-treatment period
# [9] = test system: patients with Type 2 diabetes mellitus (T2DM); test: Patient disposition / treatment discontinuation (Example 2); assay type: in vivo; conditions: randomized population
# patients with T2DM [10] = test: Fasting plasma glucose change from baseline to Week 30 (Example 3); assay type: in vivo, human
# Protocol: FPG is measured at a central laboratory. At V5 and V21, FPG will be part of the standardized meal test.
# as §1
# patients with T2DM [11] = test: Major cardiovascular events adjudicated by CAC (Example 3)
# [12] = test system: patients with Type 2 diabetes mellitus (T2DM); test: HbA1c change from baseline to Week 30 (Example 2, on top of metformin); assay type: in vivo, human; conditions: for HbA1c change from baseline to Week 30, LS Mean (SE): MMRM
# Protocol: For the eligibility and efficacy assessments of the study, HbA1c is measured by a certified level I “National Glycohemoglobin Standardization Program” (NGSP) central laboratory.
# Randomization was stratified by values of HbA1c at visit 4 (<8%, […]) and second oral anti-diabetic (OAD) use at screening (Yes, No).
# Diagnosis and criteria for inclusion: Inclusion criteria: Patients with type 2 diabetes mellitus (T2DM) diagnosed for at least 1 year before the screening visit, treated for at least 3 months prior to Visit 1 with metformin alone or metformin and a second oral anti-diabetic treatment that could be a SU, a glinide, a SGLT-2 inhibitor, or a DPP-4 inhibitor, and who were not adequately controlled with this treatment.
# Efficacy analysis was based on modified intent-to-treat (mITT) population using efficacy assessments collected during the study, including those obtained after IMP discontinuation or introduction of rescue therapy. The mITT population consisted of all randomized patients who had both a baseline assessment and at least one post-baseline assessment of any primary or secondary efficacy variables.
# The primary efficacy endpoint was analyzed using a mixed-effect model with repeated measures (MMRM). The MMRM model included the treatment groups, randomization strata, visit, treatment-by-visit interaction, and country as fixed-effect factors, and the baseline HbA1c-by-visit interaction as covariate.
# [13] = on-treatment period, Safety population
substance,measurement,setting,value
Gly(A21)-Arg(B31)-Arg(B32)-human insulin [Insulin Glargine],Reason for study treatment discontinuation: Adverse event,patients with T2DM [1],3 (0.8%)
same,Status at last study contact: Dead,patients with T2DM [1],2 (0.5%)
same,LS mean body weight change from baseline to Week 30,[2]; Example 2,+1.10 kg
same,"Body weight, change from baseline to Week 30, LS Mean (SE)","[2]; MMRM, mITT population",−1.11 (0.183) kg
same,"Body weight, Week 30, Mean (SD)",[2]; mITT population,90.68 (16.03) kg
same,"Body weight, Week 30, Median",[2]; mITT population,89.00 kg
same,Patients with TEAE of increased calcitonin,[3]; Example 2,One
same,Events reported on the AE form for increased calcitonin (≥20 ng/L): Blood calcitonin increased,[3]; [13],1 (0.2%) n (%)
same,Patients with events reported on the AE form for increased calcitonin (≥20 ng/L): Any,[3]; [13],1 (0.2%) n (%)
same,Patients reaching HbA1c<7.0% at Week 30,patients with T2DM [4]; Example 3,29.6%
same,Patients reaching HbA1c≤[…] at Week 30,patients with T2DM [4]; Example 3,14.2%
same,Patients with HbA1c <7% at Week 30,patients with T2DM [4]; mITT population,108 (29.6%) Number (%)
same,Patients with HbA1c ≤[…] at Week 30,patients with T2DM [4]; mITT population,52 (14.2%) Number (%)
same,"TEAEs adjudicated as major cardiovascular events by CAC, % of patients",[5]; Example 2,1.5%
same,"TEAEs adjudicated as major cardiovascular events by CAC, number of patients",[5]; Example 2,7 patients
same,Major cardiovascular events by CAC: Cardiovascular death,[5]; Safety population,2 (0.4%) n(%)
same,Major cardiovascular events by CAC: Coronary revascularization procedure,[5]; Safety population,1 (0.2%) n(%)
same,Major cardiovascular events by CAC: Hospitalization for heart failure,[5]; Safety population,2 (0.4%) n(%)
same,Major cardiovascular events by CAC: Hospitalization for unstable angina,[5]; Safety population,1 (0.2%) n(%)
same,Major cardiovascular events by CAC: Non-fatal myocardial infarction,[5]; Safety population,0 n(%)
same,Major cardiovascular events by CAC: Non-fatal stroke,[5]; Safety population,1 (0.2%) n(%)
same,Patients with events adjudicated as major cardiovascular events by CAC: Any,[5]; Safety population,7 (1.5%) n(%)
same,"Patients who received rescue therapy, %",patients with T2DM [6],6.0%
same,"Patients who received rescue therapy, number",patients with T2DM [6],22 patients
same,"Average of 7-point SMPG, change from baseline to Week 30, LS Mean (SE)",[7]; MMRM,−2.66 (0.084) mmol/L
same,"Average of 7-point SMPG, Week 30, Mean (SD)",[7],7.75 (1.49) mmol/L
same,"Average of 7-point SMPG, Week 30, Median",[7],7.49 mmol/L
same,"Patients reporting pen-related events, %",[8]; Example 2,2.1%
same,"Patients reporting pen-related events, number",[8]; Example 2,10 patients
same,Patients with events reported in pen-related event questionnaire: Any pen-related events,[8]; Safety population,10 (2.1%) Number (%)
same,Pen-related events: Associated with a clinical event,[8]; Safety population,0 Number (%)
same,Pen-related events: Not associated with a clinical event,[8]; Safety population,10 (2.1%) Number (%)
same,"Status at last study contact: Dead, %",[9],0.9%
same,"Status at last study contact: Dead, number of patients",[9],4 patients
same,"Study treatment discontinuation due to adverse event, %",[9],1.9%
same,"Study treatment discontinuation due to adverse event, number of patients",[9],9 patients
same,"Study treatment discontinuation due to lack of efficacy, number of patients",[9],0 patients
same,"FPG, LS mean change from baseline to Week 30",patients with T2DM [10]; Example 3,-0.46 mmol/L
same,"Fasting plasma glucose change from baseline to Week 30, LS Mean","patients with T2DM [10]; MMRM, mITT population",-0.46 mmol/L
same,"Fasting plasma glucose at Week 30, Mean",patients with T2DM [10]; mITT population,6.69 mmol/L
same,"Fasting plasma glucose at Week 30, Median",patients with T2DM [10]; mITT population,6.30 mmol/L
same,"Events adjudicated as major cardiovascular events by CAC, % of patients",patients with T2DM [11]; Example 3,1.1%
same,"Events adjudicated as major cardiovascular events by CAC, number of patients",patients with T2DM [11]; Example 3,4 patients
same,% of patients with events adjudicated as major cardiovascular events by CAC: Any,patients with T2DM [11]; [13],1.1%
same,% of patients with events adjudicated as major cardiovascular events by CAC: Cardiovascular death,patients with T2DM [11]; [13],0.3%
same,% of patients with events adjudicated as major cardiovascular events by CAC: Coronary revascularization procedure,patients with T2DM [11]; [13],0.8%
same,% of patients with events adjudicated as major cardiovascular events by CAC: Hospitalization for heart failure,patients with T2DM [11]; [13],0.3%
same,Number of patients with events adjudicated as major cardiovascular events by CAC: Any,patients with T2DM [11]; [13],4
same,Number of patients with events adjudicated as major cardiovascular events by CAC: Cardiovascular death,patients with T2DM [11]; [13],1
same,Number of patients with events adjudicated as major cardiovascular events by CAC: Coronary revascularization procedure,patients with T2DM [11]; [13],3
same,Number of patients with events adjudicated as major cardiovascular events by CAC: Hospitalization for heart failure,patients with T2DM [11]; [13],1
same,Number of patients with events adjudicated as major cardiovascular events by CAC: Hospitalization for unstable angina,patients with T2DM [11]; [13],0
same,Number of patients with events adjudicated as major cardiovascular events by CAC: Non-fatal myocardial infarction,patients with T2DM [11]; [13],0
same,Number of patients with events adjudicated as major cardiovascular events by CAC: Non-fatal stroke,patients with T2DM [11]; [13],0
same,"HbA1c change from baseline to Week 30, LS Mean (SE)",[12]; mITT population,−1.34 (0.039) %
same,"HbA1c change from baseline to Week 30, LS Mean (SE)","[12]; mITT population, listed as insulin glargine",−1.34%
same,HbA1c (%) Week 30 Mean (SD),"[12]; Week 30, mITT population",6.81 (0.76) %
same,HbA1c (%) Week 30 Median,"[12]; Week 30, mITT population",6.70%
same,HbA1c (%) Week 30 Mean (SD),"[12]; Week 30, mITT population, listed as insulin glargine",6.8%
same,HbA1c (%) Baseline Mean (SD),"[12]; baseline, mITT population",8.08 (0.69) %
same,HbA1c (%) Baseline Median,"[12]; baseline, mITT population",8.00%
